Source: paper PMC10723718 (PLOS Genetics, 2023)

B1: His6-tagged PrrBC (cytoplasmic region of PrrB comprising C-terminal residues 200 to 446) (domain or fragment)
chain: ASEAIEIAEAMRGMLQRIWNEQNRTKEALASARDFAAVSSHELRTPLTAMRTNLEVLSTLDLPDDQRKEVLNDVIRTQSRIEATLSALERLAQGELSTSDDHVPVDITDLLDRAAHDAARIYPDLDVSLVPSPTCIIVGLPAGLRLAVDNAIANAVKHGGATLVQLSAVSSRAGVEIAIDDNGSGVPEGERQVVFERFSRGSTASHSGSGLGLALVAQQAQLHGGTASLENSPLGGARLVLRLPGPS
notes: PrrB, sensor kinase, M. tuberculosis, cytoplasmic domain residues 200-446 (247 amino acids); also called His6-PrrBC; His-PrrBC; not shown: His6, N-terminal, kept
B2: GST-PhoRC (domain or fragment)
chain: TAAAIGAGQLDRRVPQWHPRTEVGRLSLALNGMLAQIQRAVASAESSAEKARDSEDRMRQFITDASHELRTPLTTIRGFAELYRQGAARDVGMLLSRIESEASRMGLLVDDLLLLARLDAHRPLELCRVDLLALASDAAHDARAMDPKRRITLEVLDGPGTPEVLGDESRLRQVLRNLVANAIQHTPESADVTVRVGTEGDDAILEVADDGPGMSQEDALRVFERFYRADSSRARASGGTGLGLSIVDSLVAAHGGAVTVTTALGEGCCFRVSLPRVSDVDQLSLTPVVPGPP
notes: PhoR, sensor kinase, M. tuberculosis, cytoplasmic domain PhoRC, residues 193-485 (C-terminal 293 residues); also called GST-tagged PhoRC

Legend:
GST-PhoP = molecular target: T1, GST-PhoP (M. tuberculosis, UniProt P71814 1-247); test: pull-down; details: both partners purified
T1 construct: PhoP, response regulator, M. tuberculosis; also called GST-tagged PhoP

His6-PhoP = molecular target: T2, His6-PhoP (M. tuberculosis, UniProt P71814 1-247); test: pull-down; details: both partners purified
T2 construct: PhoP, response regulator, M. tuberculosis, full length (247 amino acids); also called His-PhoP; not shown: His6, N-terminal, kept

| Binder | binding result (GST-PhoP) | binding result (His6-PhoP) |
| --- | --- | --- |
| B1 | binds | – |
| B2 | – | binds |
